# Laboratory results reported in patent publication US5688911A, “Trk neurotrophin binding motifs” (priority 1995, dated 1997).
# No end group written: not given here.
# T1: BDNF (Mus musculus, UniProt P21237)
# T1 sequence (P21237 131-249): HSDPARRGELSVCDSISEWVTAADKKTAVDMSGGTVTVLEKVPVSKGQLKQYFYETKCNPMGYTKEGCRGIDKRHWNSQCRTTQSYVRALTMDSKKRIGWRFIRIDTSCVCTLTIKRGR
# T2: NT-3 (Mus musculus, UniProt P20181)
# T2 sequence (P20181 140-258): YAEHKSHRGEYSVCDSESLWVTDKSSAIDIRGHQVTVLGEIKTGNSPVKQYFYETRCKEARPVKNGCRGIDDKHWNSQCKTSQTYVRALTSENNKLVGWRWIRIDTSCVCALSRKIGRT
# T3: NT-4 (Xenopus laevis, UniProt P24727)
# T3 sequence (P24727 114-236): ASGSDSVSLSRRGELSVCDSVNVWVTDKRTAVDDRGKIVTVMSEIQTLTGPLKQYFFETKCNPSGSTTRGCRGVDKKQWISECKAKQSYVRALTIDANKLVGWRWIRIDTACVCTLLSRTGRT
# B1: BDNF: Brain-derived neurotrophic factor, a neurotrophin; iodinated form in binding studies (protein, UniProt P23560 19-247, looked up)
# Neurotrophic factor BDNF …: APMKEANIRGQGGLAYPGVRTHGTLESVNGPKAGSRGLTSLADTFEHVIEELLDEDQKVRPNEENNKDADLYTSRVMLSSQVPLEPPLLFLLEEYKNYLDAANMSMRVRRHSDPARRGELSVCDSISEWVTAADKKTAVDMSGGTVTVLEKVPVSKGQLKQYFYETKCNPMGYTKEGCRGIDKRHWNSQCRTTQSYVRALTMDSKKRIGWRFIRIDTSCVCTLTIKRGR
# modifications: 125I label
# Key:
# BDNF = molecular target: T1, BDNF; assay: Qualitative binding assay, receptor affinity, 125I-BDNF; set-up: key: A "+" indicates binding of the neurotrophin in a qualitative binding assay using receptor affinity columns (no Kd determined); A "-" indicates that no binding of the neurotrophin to the respective receptor module could be detected
# NT-3 = molecular target: T2, NT-3; assay: Qualitative binding assay, receptor affinity, 125I-NT-3; set-up: key: A "+" indicates binding of the neurotrophin in a qualitative binding assay using receptor affinity columns (no Kd determined); A "-" indicates that no binding of the neurotrophin to the respective receptor module could be detected
# TrkB receptors = settings: non-neuronal cells ectopically expressing TrkB; read-out: affinities; cited from earlier work
# rat TrkB = molecular target: T4, rat TrkB (Rattus norvegicus, UniProt Q63604); settings: mouse NIH 3T3 fibroblasts expressing rat TrkB; cited from earlier work
# T4 construct: host or cells: mouse NIH 3T3 fibroblasts (transfected)
# NGF = molecular target: T5, NGF (Mus musculus, UniProt P01139); assay: Qualitative binding assay, receptor affinity, 125I-NGF; set-up: key: +neurotrophin binding; -no neurotrophin binding detectible; settings: Table 2
# T5 construct: Mouse submaxillary gland NGF-β, was purchased from Sigma Immuno Chemicals; purchased Amersham (125I-NGFβ); Sigma Immuno Chemicals (unlabelled NGF-β); host or cells: mouse submaxillary gland
# NT-4 = molecular target: T3, NT-4; assay: Qualitative binding assay, receptor affinity, 125I-NT-4; set-up: key to 125I-Neurotrophin NTA binding (qualitative): +neurotrophin binding; -no neurotrophin binding detectible
# T4 sequence (Q63604 32-821): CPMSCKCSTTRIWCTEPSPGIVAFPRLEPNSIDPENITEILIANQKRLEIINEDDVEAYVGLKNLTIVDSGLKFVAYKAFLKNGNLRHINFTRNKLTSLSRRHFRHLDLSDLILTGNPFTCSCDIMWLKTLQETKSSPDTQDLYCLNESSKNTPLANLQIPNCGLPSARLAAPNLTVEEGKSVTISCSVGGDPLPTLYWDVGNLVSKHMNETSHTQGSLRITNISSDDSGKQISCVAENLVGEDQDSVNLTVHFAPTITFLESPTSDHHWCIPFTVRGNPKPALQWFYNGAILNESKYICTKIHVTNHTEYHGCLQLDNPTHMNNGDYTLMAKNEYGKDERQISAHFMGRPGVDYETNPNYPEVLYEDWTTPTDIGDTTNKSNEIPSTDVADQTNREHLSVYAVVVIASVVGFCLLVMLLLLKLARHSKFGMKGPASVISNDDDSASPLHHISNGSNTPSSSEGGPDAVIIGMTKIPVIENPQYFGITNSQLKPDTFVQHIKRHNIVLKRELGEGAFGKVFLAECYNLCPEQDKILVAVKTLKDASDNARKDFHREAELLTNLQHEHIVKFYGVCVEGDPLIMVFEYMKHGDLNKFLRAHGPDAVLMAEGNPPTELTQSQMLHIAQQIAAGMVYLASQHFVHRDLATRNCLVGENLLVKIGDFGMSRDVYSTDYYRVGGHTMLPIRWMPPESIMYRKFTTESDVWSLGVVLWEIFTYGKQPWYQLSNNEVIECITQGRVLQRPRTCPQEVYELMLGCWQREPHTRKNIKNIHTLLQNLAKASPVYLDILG
# T5 sequence (P01139 122-241): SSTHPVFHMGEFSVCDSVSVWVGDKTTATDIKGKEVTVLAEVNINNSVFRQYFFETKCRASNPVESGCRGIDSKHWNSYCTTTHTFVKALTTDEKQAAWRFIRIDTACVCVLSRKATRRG
molecule,measurement,setting,value
"TIVKSGLRFVAPDAFHFTPRLSHL (SEQ ID NO: 4) (TIVKSGLRFVAPDAFHFTPRLSHL; also: MBP fusion partner) [TrkA L2, isolated 24 amino acid second leucine-rich motif of rat TrkA (Thr97-Leu120), MBP fusion]",BDNF binding (qualitative),BDNF,-
same,NT-3 binding (qualitative),NT-3,-
NT-3: neurotrophin 3; iodinated form in binding studies,Kd,TrkB receptors,~1 nM
same,Kd,rat TrkB,~1.3 nM
TIVDSGLKFVAYKAFLKNGNLRHI (SEQ ID NO: 5) [TrkB L2],125I-Neurotrophin NGF binding (qualitative),NGF,-
same,125I-Neurotrophin NTA binding (qualitative),NT-4; Table 2,+
"TIKNSGLRSIQPRAFAKNPHLRYI (SEQ ID NO:3) (TIKNSGLRSIQPRAFAKNPHLRYI) [LRM2 of TrkC, 24 amino acid second leucine rich motif of TrkC]",binding of neurotrophin-4,NT-4; data not shown,found to bind neurotrophin-4
B1,Kd,TrkB receptors,~1 nM
same,Kd,rat TrkB,~1.8 nM
